Reference: the supplement of paper PMC10567573

B1: ZNF75A (parent)
chain: RTHTGEQPYTCSICRRNFSRRSSL

Variants of: B1
Test: protein stability index of a GFP-peptide fusion (GPS, HEK-293T) (PSI 1-6); higher = more stable
Settings: c terminus: a fixed tail appended
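Note: lentivirally expressed fusions sorted by FACS into six bins by GFP to DsRed ratio, PSI derived from sequencing read proportions per bin multiplied by bin number.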

Variant | protein stability index
RTHTGEQPYTCSICRRNFSRRMSL [S22M] | 2.25
RTHTGEQPYTCSICRRNFSRRTSL [S22T] | 3.27
RTHTGEQPYTCSICRRNFSRRASL [S22A] | 2.86
RTHTGEQPYTCSICRRNFSRRHSL [S22H] | 3.5
RTHTGEQPYTCSICRRNFSRRISL [S22I] | 2.77
RTHTGEQPYTCSICRRNFSRRKSL [S22K] | 3.16
RTHTGEQPYTCSICRRNFSRRPSL [S22P] | 2.76
RTHTGEQPYTCSICRRNFSRRWSL [S22W] | 2.42
RTHTGEQPYTCSICRRNFSRRESL [S22E] | 2.77
RTHTGEQPYTCSICRRNFSRRFSL [S22F] | 2.81
RTHTGEQPYTCSICRRNFSRRDSL [S22D] | 2.3
RTHTGEQPYTCSICRRNFSRRCSL [S22C] | 2.64
RTHTGEQPYTCSICRRNFSRRVSL [S22V] | 2.93
RTHTGEQPYTCSICRRNFSRRQSL [S22Q] | 2.77
RTHTGEQPYTCSICRRNFSRRLSL [S22L] | 2.91
RTHTGEQPYTCSICRRNFSRRRSL [S22R] | 3.55
RTHTGEQPYTCSICRRNFSRRYSL [S22Y] | 2.99
RTHTGEQPYTCSICRRNFSRRGSL [S22G] | 2.51
RTHTGEQPYTCSICRRNFSRRNSL [S22N] | 2.65
RTHTGEQPYTCSICRRNFSRRSSV [L24V] | 2.29
RTHTGEQPYTCSICRRNFSRRSST [L24T] | 3.03
RTHTGEQPYTCSICRRNFSRRSSM [L24M] | 2.96
RTHTGEQPYTCSICRRNFSRRSSC [L24C] | 2.63
RTHTGEQPYTCSICRRNFSRRSSF [L24F] | 2.65

Variant | protein stability index
RTHTGEQPYTCSICRRNFSRRSSA [L24A] | 3.02
RTHTGEQPYTCSICRRNFSRRSSN [L24N] | 2.56
RTHTGEQPYTCSICRRNFSRRSSI [L24I] | 2.79
RTHTGEQPYTCSICRRNFSRRSSW [L24W] | 1.96
RTHTGEQPYTCSICRRNFSRRSSP [L24P] | 3.82
RTHTGEQPYTCSICRRNFSRRSSY [L24Y] | 3.03
RTHTGEQPYTCSICRRNFSRRSSS [L24S] | 2.99
RTHTGEQPYTCSICRRNFSRRSSE [L24E] | 4.02
RTHTGEQPYTCSICRRNFSRRSSQ [L24Q] | 3.05
RTHTGEQPYTCSICRRNFSRRSSH [L24H] | 3.23
RTHTGEQPYTCSICRRNFSRRSSK [L24K] | 4.06
RTHTGEQPYTCSICRRNFSRRSSG [L24G] | 3.1
RTHTGEQPYTCSICRRNFSRRSSD [L24D] | 2.71
RTHTGEQPYTCSICRRNFSRRSSR [L24R] | 3.63
RTHTGEQPYTCSICRRNFSRDSSL [R21D] | 2.73
RTHTGEQPYTCSICRRNFSRPSSL [R21P] | 1.97
RTHTGEQPYTCSICRRNFSRYSSL [R21Y] | 1.39
RTHTGEQPYTCSICRRNFSRESSL [R21E] | 3.51
RTHTGEQPYTCSICRRNFSRHSSL [R21H] | 2.12
RTHTGEQPYTCSICRRNFSRLSSL [R21L] | 1.79
RTHTGEQPYTCSICRRNFSRTSSL [R21T] | 2.84
RTHTGEQPYTCSICRRNFSRNSSL [R21N] | 2.72
RTHTGEQPYTCSICRRNFSRCSSL [R21C] | 2.24
RTHTGEQPYTCSICRRNFSRMSSL [R21M] | 2.37

Variant | protein stability index
RTHTGEQPYTCSICRRNFSRASSL [R21A] | 1.64
RTHTGEQPYTCSICRRNFSRGSSL [R21G] | 1.72
RTHTGEQPYTCSICRRNFSRQSSL [R21Q] | 3.09
RTHTGEQPYTCSICRRNFSRFSSL [R21F] | 1.95
RTHTGEQPYTCSICRRNFSRSSSL [R21S] | 1.58
RTHTGEQPYTCSICRRNFSRVSSL [R21V] | 1.95
RTHTGEQPYTCSICRRNFSRWSSL [R21W] | 2.69
RTHTGEQPYTCSICRRNFSRKSSL [R21K] | 2.5
RTHTGEQPYTCSICRRNFSRISSL [R21I] | 1.61
RTHTGEQPYTCSICRRNFSPRSSL [R20P] | 2.36
RTHTGEQPYTCSICRRNFSERSSL [R20E] | 1.83
RTHTGEQPYTCSICRRNFSNRSSL [R20N] | 2.19
RTHTGEQPYTCSICRRNFSHRSSL [R20H] | 2.53
RTHTGEQPYTCSICRRNFSWRSSL [R20W] | 1.52
RTHTGEQPYTCSICRRNFSIRSSL [R20I] | 1.73
RTHTGEQPYTCSICRRNFSCRSSL [R20C] | 2.4
RTHTGEQPYTCSICRRNFSTRSSL [R20T] | 2.59
RTHTGEQPYTCSICRRNFSMRSSL [R20M] | 2.15
RTHTGEQPYTCSICRRNFSYRSSL [R20Y] | 2.24
RTHTGEQPYTCSICRRNFSLRSSL [R20L] | 2.56
RTHTGEQPYTCSICRRNFSGRSSL [R20G] | 3.5
RTHTGEQPYTCSICRRNFSFRSSL [R20F] | 1.72
RTHTGEQPYTCSICRRNFSSRSSL [R20S] | 1.93
RTHTGEQPYTCSICRRNFSARSSL [R20A] | 2.67

Variant | protein stability index
RTHTGEQPYTCSICRRNFSVRSSL [R20V] | 2.46
RTHTGEQPYTCSICRRNFSQRSSL [R20Q] | 2.13
RTHTGEQPYTCSICRRNFSDRSSL [R20D] | 2.46
RTHTGEQPYTCSICRRNFSKRSSL [R20K] | 2.12
RTHTGEQPYTCSICRRNFSRRSIL [S23I] | 2.13
RTHTGEQPYTCSICRRNFSRRSRL [S23R] | 2.9
RTHTGEQPYTCSICRRNFSRRSLL [S23L] | 2.15
RTHTGEQPYTCSICRRNFSRRSHL [S23H] | 2.32
RTHTGEQPYTCSICRRNFSRRSTL [S23T] | 2.72
RTHTGEQPYTCSICRRNFSRRSEL [S23E] | 2.17
RTHTGEQPYTCSICRRNFSRRSKL [S23K] | 3.2
RTHTGEQPYTCSICRRNFSRRSGL [S23G] | 2.76
RTHTGEQPYTCSICRRNFSRRSAL [S23A] | 2.67
RTHTGEQPYTCSICRRNFSRRSCL [S23C] | 2.85
RTHTGEQPYTCSICRRNFSRRSNL [S23N] | 2.63
RTHTGEQPYTCSICRRNFSRRSML [S23M] | 2.33
RTHTGEQPYTCSICRRNFSRRSPL [S23P] | 2.94
RTHTGEQPYTCSICRRNFSRRSWL [S23W] | 2.34
RTHTGEQPYTCSICRRNFSRRSYL [S23Y] | 1.78
RTHTGEQPYTCSICRRNFSRRSQL [S23Q] | 2.04
RTHTGEQPYTCSICRRNFSRRSDL [S23D] | 2.28
RTHTGEQPYTCSICRRNFSRRSVL [S23V] | 2.5
RTHTGEQPYTCSICRRNFSRRSFL [S23F] | 1.78
